Measured values published in PMC6443806 (Scientific Reports, 2019).
Values belong to the molecule of their own block, whether it stands above or below them.

What was measured:
His54 = His54 (UniProt position 515, KNAVRHNLSLA); experiment: stability (GdmCl equilibrium unfolding followed by intrinsic Trp fluorescence) with Wyman-Tanford linkage analysis; conditions: 37 °C, Not stated for the unfolding buffer (standard buffer contains 150 mM NaCl). GdmCl 0-6 M in the unfolding series., buffer at different pH values (composition not restated; standard buffer is 20 mM HEPES, 150 mM NaCl, 2 mM β-mercaptoethanol) supplemented with GdmCl, DNA-free
His59 [1] = target: T1, His59 (UniProt position 520, HNLSLHKCFVR); experiment: as above; conditions: 37 °C, Not stated for the unfolding buffer (standard buffer contains 150 mM NaCl). GdmCl 0-6 M in the unfolding series., buffer at different pH values (composition not restated; standard buffer is 20 mM HEPES, 150 mM NaCl, 2 mM β-mercaptoethanol) supplemented with GdmCl, DNA-free
His59 [2] = target: T1, His59; experiment: kinetics (SEC-monitored dimer dissociation) with Wyman-Tanford linkage analysis; conditions: 37 °C, 150 mM NaCl, standard buffer (20 mM HEPES, 150 mM NaCl, 2 mM β-mercaptoethanol) adjusted to different pH values, DNA-free
[3] = target: forkhead domain of human FoxP1, H59A mutant (human); experiment: SEC; isolated dimer diluted to 5 μM in standard buffer (20 mM HEPES, 150 mM NaCl, 2 mM β-mercaptoethanol) at pH 5.0, 37 °C, aliquots over 2 h on Superdex 75; dimer to monomers; Kd from the equilibrium dimer fraction, koff from a single exponential decay, kon derived from Kd = koff/kon
[4] = target: forkhead domain of human FoxP1, H59A mutant (human); experiment: SEC; isolated dimer diluted to 5 μM in standard buffer (20 mM HEPES, 150 mM NaCl, 2 mM β-mercaptoethanol) at pH 6.0, 37 °C, aliquots over 2 h on Superdex 75; dimer to monomers; Kd from the equilibrium dimer fraction, koff from a single exponential decay, kon derived from Kd = koff/kon
[5] = target: forkhead domain of human FoxP1, H59A mutant (human); experiment: SEC; isolated dimer diluted to 5 μM in standard buffer (20 mM HEPES, 150 mM NaCl, 2 mM β-mercaptoethanol) at pH 7.8, 37 °C, aliquots over 2 h on Superdex 75; dimer to monomers; Kd from the equilibrium dimer fraction, koff from a single exponential decay, kon derived from Kd = koff/kon
[6] = target: the molecule itself; experiment: as above
[7] = target: the molecule itself; experiment: SEC; isolated dimer diluted to 5 μM in standard buffer (20 mM HEPES, 150 mM NaCl, 2 mM β-mercaptoethanol) at pH 7.0, 37 °C, aliquots over 2 h on Superdex 75; dimer to monomers; Kd from the equilibrium dimer fraction, koff from a single exponential decay, kon derived from Kd = koff/kon
[8] = target: the molecule itself; experiment: SEC; isolated dimer diluted to 5 μM in standard buffer (20 mM HEPES, 150 mM NaCl, 2 mM β-mercaptoethanol) at pH 6.0, 37 °C, aliquots over 2 h on Superdex 75; dimer to monomers; Kd from the equilibrium dimer fraction, koff from a single exponential decay, kon derived from Kd = koff/kon
[9] = target: the molecule itself; experiment: SEC; isolated dimer diluted to 5 μM in standard buffer (20 mM HEPES, 150 mM NaCl, 2 mM β-mercaptoethanol) at pH 5.5, 37 °C, aliquots over 2 h on Superdex 75; dimer to monomers; Kd from the equilibrium dimer fraction, koff from a single exponential decay, kon derived from Kd = koff/kon
[10] = target: the molecule itself; experiment: SEC; isolated dimer diluted to 5 μM in standard buffer (20 mM HEPES, 150 mM NaCl, 2 mM β-mercaptoethanol) at pH 5.0, 37 °C, aliquots over 2 h on Superdex 75; dimer to monomers; Kd from the equilibrium dimer fraction, koff from a single exponential decay, kon derived from Kd = koff/kon
[11] = monomeric folding intermediate (I)

Molecule: Forkhead box protein P1 (FoxP1), forkhead DNA-binding domain, H59A mutant (Homo sapiens; H59A)
pKa (His54; [11]): 5.3 | pKa (His54; unfolded state (U)): 5.9

Molecule: Forkhead box protein P1 (FoxP1), forkhead DNA-binding domain, wild type (Homo sapiens)
pKa (His59 [1]; [11]): 5.7 | pKa (His59 [1]; unfolded state (U)): 7.7 | pKa (His59 [2]; domain-swapped dimer (D)): 5.5 | pKa (His59 [2]; monomer (M)): 7.3 | pKa (His59 [2]; transition state (‡) for domain swapping): 5.5

Kd [3]: 7.9 µM | koff [3]: 0.000988 s⁻¹ | kon [3]: 125 M⁻¹ s⁻¹ | Kd [4]: 5.9 µM | koff [4]: 0.000628 s⁻¹ | kon [4]: 107 M⁻¹ s⁻¹ | Kd [5]: 7.5 µM | koff [5]: 0.000723 s⁻¹ | kon [5]: 96.7 M⁻¹ s⁻¹
Molecule: forkhead domain of human FoxP1, H59A mutant (domain or fragment)

B1: forkhead domain of human FoxP1, wild type (domain or fragment)
chain: AEVRPPFTYASLIRQAILESPEKQLTLNEIYNWFTRMFAYFRRNAATWKNAVRHNLSLHKCFVRVENVKGAVWTVDEVEFQKRRPQK
Kd [6]: 0.6 ± 0.1 µM | koff [6]: 0.00106 s⁻¹ | kon [6]: 1790 M⁻¹ s⁻¹ | Kd [7]: 0.8 ± 0.1 µM | koff [7]: 0.00113 s⁻¹ | kon [7]: 1340 M⁻¹ s⁻¹ | Kd [8]: 3.7 ± 0.3 µM | koff [8]: 0.000553 s⁻¹ | kon [8]: 150 M⁻¹ s⁻¹ | Kd [9]: 13.1 ± 0.2 µM | koff [9]: 0.000675 s⁻¹ | kon [9]: 51.7 M⁻¹ s⁻¹ | Kd [10]: 31.2 ± 0.3 µM | koff [10]: 0.00235 s⁻¹ | kon [10]: 58.3 M⁻¹ s⁻¹
